One data set concerns the target T1, wild type DmORC (Drosophila melanogaster, UniProt O16810+Q9W102).
T1 construct: gene Orc1; full-length heterohexamer Orc1-6; 6xHis (Orc1) and MBP (Orc4) tags cut by TEV; Hi5 insect cells; with Origin recognition complex subunit 2; Origin recognition complex subunit 3; Origin recognition complex subunit 5; Origin recognition complex subunit 6
In words: NADH-coupled ATPase assay (PK/LDH), Michaelis-Menten fit. Conditions: pH 7.6, 10 mM magnesium acetate, 300 mM potassium glutamate, 27 °C, no DNA; Orc1/4 site. The data set is classed as biochemical.

Data set [1] deals with T2, ATP-DmORC (DmORC^Orc1ΔN), DNA-free (Drosophila melanogaster, UniProt O16810+Q24169+Q7K2L1+Q9W102).
T2 construct: gene Orc1; heterohexamer; Orc1 lacking N-terminal 439 residues (truncation inferred for the DNA-free structure); tags cut by TEV; Hi5 insect cells; with Origin recognition complex subunit 2; Origin recognition complex subunit 6
T2 sequence (O16810 440-924, stated change not applied): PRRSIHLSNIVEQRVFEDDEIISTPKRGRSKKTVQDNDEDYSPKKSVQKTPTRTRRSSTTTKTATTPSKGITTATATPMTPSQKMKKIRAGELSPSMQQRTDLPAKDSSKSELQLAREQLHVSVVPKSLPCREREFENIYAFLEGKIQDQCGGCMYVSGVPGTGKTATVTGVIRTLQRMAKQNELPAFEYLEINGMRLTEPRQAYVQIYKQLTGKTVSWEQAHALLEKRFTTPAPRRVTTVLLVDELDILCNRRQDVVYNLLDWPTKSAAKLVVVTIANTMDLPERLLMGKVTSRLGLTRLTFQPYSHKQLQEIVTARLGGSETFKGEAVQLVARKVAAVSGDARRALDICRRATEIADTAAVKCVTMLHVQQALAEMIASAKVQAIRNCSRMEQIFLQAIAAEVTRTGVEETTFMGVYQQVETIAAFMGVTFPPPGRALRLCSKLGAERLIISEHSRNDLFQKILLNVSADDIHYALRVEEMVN
T2 sequence (Q9W102 1-459, stated change not applied): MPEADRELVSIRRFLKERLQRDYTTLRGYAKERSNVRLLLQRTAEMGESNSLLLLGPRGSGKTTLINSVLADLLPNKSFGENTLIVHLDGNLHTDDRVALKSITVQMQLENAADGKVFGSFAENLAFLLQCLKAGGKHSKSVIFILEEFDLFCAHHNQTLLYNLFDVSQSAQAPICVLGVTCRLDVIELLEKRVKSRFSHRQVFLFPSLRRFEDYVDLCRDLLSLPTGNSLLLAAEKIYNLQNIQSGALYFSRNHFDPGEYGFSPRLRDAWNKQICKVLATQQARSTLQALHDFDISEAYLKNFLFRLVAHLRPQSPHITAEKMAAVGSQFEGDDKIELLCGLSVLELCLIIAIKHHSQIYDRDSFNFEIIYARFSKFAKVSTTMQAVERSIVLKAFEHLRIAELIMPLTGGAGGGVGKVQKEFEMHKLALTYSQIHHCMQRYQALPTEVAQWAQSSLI
T2 sequence (Q24169 whole entry, stated change not applied, the tested form may be a part): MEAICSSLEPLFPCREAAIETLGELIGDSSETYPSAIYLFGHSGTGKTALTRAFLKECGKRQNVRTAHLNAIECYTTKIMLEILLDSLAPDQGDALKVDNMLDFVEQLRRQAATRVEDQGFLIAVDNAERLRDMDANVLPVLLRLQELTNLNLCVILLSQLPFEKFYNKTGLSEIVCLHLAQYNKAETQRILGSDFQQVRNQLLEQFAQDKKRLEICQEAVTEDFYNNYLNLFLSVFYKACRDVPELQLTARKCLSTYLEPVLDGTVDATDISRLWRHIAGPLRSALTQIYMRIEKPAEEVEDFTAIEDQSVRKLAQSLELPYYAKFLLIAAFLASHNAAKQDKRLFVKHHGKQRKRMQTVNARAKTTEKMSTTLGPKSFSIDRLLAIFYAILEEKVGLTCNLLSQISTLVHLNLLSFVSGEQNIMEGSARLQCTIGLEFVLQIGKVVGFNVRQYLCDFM
T2 sequence (Q7K2L1 1-721, stated change not applied): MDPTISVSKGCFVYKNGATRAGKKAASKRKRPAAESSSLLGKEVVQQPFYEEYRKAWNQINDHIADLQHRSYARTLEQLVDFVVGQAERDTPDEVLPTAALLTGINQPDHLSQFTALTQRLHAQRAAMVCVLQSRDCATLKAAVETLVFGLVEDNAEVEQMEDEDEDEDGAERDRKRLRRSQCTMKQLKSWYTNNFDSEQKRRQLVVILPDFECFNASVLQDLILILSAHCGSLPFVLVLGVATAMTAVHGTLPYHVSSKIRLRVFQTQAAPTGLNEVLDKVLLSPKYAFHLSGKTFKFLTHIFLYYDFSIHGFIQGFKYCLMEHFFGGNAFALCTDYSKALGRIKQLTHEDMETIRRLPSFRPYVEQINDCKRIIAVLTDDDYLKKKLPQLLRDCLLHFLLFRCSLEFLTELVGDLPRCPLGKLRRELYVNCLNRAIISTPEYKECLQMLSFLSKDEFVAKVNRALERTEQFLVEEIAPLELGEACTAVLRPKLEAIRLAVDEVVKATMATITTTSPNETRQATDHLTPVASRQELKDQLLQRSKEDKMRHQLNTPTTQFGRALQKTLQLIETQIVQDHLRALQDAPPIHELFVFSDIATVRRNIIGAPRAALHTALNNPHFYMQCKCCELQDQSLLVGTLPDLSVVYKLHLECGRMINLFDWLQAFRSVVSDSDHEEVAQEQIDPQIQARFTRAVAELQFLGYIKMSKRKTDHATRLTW
T2 sequence (Q24168 whole entry partner, the tested form may be a part): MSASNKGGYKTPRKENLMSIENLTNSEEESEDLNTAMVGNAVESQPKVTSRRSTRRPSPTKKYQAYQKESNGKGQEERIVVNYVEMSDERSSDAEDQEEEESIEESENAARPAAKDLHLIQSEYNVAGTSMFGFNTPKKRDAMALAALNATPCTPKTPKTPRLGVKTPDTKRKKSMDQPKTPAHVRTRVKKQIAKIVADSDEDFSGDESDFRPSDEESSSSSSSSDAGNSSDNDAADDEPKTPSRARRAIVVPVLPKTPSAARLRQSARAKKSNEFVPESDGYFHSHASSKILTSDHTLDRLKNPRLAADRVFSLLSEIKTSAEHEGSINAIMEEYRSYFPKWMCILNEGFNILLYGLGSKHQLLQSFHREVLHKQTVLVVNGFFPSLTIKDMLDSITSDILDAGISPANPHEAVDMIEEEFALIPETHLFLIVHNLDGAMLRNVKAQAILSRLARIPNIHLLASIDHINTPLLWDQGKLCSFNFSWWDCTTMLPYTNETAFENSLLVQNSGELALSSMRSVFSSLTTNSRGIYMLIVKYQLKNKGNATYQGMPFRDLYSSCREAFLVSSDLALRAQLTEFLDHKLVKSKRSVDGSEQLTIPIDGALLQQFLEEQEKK
T2 sequence (Q9Y1B2 whole entry partner, the tested form may be a part): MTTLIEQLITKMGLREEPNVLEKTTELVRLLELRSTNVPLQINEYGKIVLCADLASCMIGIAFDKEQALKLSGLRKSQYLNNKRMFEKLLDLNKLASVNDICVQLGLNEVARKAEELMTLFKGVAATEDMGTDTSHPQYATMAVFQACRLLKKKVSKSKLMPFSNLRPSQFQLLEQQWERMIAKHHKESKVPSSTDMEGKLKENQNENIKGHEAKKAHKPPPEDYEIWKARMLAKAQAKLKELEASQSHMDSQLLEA
In words: cryo-EM structure. The data set is classed as binding. Conditions: no DNA, no Cdc6; active conformation.

For data set [2], the target named is T3, DmORC (Orc1-6) wild type (Drosophila melanogaster, UniProt O16810;Q24168;Q7K2L1;Q9W102;Q24169;Q9Y1B2 1-924;1-618;1-721;1-459;1-460;1-257). Kind of data set: fluorescence anisotropy; 1 mM ATP; Anisotropy: 1 nM dsDNA, 25 mM HEPES-KOH pH 7.6, 300 mM K-glutamate, 10 mM Mg-acetate, 10% glycerol, 0.1% NP40, 1 mM DTT, 0.1 mg/mL BSA, 0 or 1 mM ATP, 25 C, 40. To be noted: protein: recombinant; tags: 6xHis-Orc1 and MBP-Orc4 tags cleaved by TEV; copies: 1;1;1;1;1;1; label: 5' fluorescein-dT on top strand; blunt 40 bp; the 5' fluorescein-dT may add one unpaired T. A general note: Polarisation of emitted light reports the rotation of a fluorescent probe.

Data set [3] deals with T3, DmORC (Orc1-6) wild type. Kind of data set: fluorescence anisotropy; 1 mM ATP; Hill fit (quadratic fit 1.7 nM); Anisotropy: 1 nM dsDNA, 25 mM HEPES-KOH pH 7.6, 300 mM K-glutamate, 10 mM Mg-acetate, 10% glycerol, 0.1% NP40, 1 mM DTT, 0.1 mg/mL BSA, 0 or 1 mM ATP, 25 C, 40. Conditions: protein: recombinant; tags: 6xHis-Orc1 and MBP-Orc4 tags cleaved by TEV; copies: 1;1;1;1;1;1; label: 5' fluorescein-dT on top strand; blunt 40 bp; the 5' fluorescein-dT may add one unpaired T.

For data set [4], the target named is T4, DmORC Orc1deltaN;DmCdc6deltaN241 (Drosophila melanogaster;Drosophila …, UniProt O16810;Q24168;Q7K2L1;Q9W102;Q24169;Q9Y1B2;Q9VSM9 …, |del1-241). Kind of data set: cryo-EM; ATP, Mg2+; state 1, bend ~22 deg; Anisotropy: 1 nM dsDNA, 25 mM HEPES-KOH pH 7.6, 300 mM K-glutamate, 10 mM Mg-acetate, 10% glycerol, 0.1% NP40, 1 mM DTT, 0.1 mg/mL BSA, 0 or 1 mM ATP, 25 C, 40. To be noted: protein: recombinant;recombinant; tags: tags cleaved;6xHis-MBP cleaved by TEV; copies: 1;1;1;1;1;1;1; blunt.

The target in a further data set is DmORC Orc4-R97A (Drosophila melanogaster, UniProt O16810;Q24168;Q7K2L1;Q9W102;Q24169;Q9Y1B2 1-924;1-618;1-721;1-459;1-460;1-257, R97A). In words: fluorescence anisotropy; 1 mM ATP; Anisotropy: 1 nM dsDNA, 25 mM HEPES-KOH pH 7.6, 300 mM K-glutamate, 10 mM Mg-acetate, 10% glycerol, 0.1% NP40, 1 mM DTT, 0.1 mg/mL BSA, 0 or 1 mM ATP, 25 C, 40. To be noted: protein: recombinant; tags: tags cleaved; copies: 1;1;1;1;1;1; label: 5' fluorescein-dT (/5FluorT/) on top strand; blunt 40 bp; the 5' fluorescein-dT may add one unpaired T.

The next data set concerns the target DmORC Orc3-K141A (Drosophila melanogaster, UniProt O16810;Q24168;Q7K2L1;Q9W102;Q24169;Q9Y1B2 1-924;1-618;1-721;1-459;1-460;1-257, K141A). The data set is described as above. To be noted: protein: recombinant; tags: tags cleaved; copies: 1;1;1;1;1;1; label: 5' fluorescein-dT (/5FluorT/) on top strand; blunt 40 bp; the 5' fluorescein-dT may add one unpaired T.
The next data set concerns the target DmORC Orc1deltaN (Drosophila melanogaster, UniProt O16810;Q24168;Q7K2L1;Q9W102;Q24169;Q9Y1B2 440-924;1-618;1-721;1-459;1-460;1-257). In words: cryo-EM; gel filtration; ATP, Mg2+; Anisotropy: 1 nM dsDNA, 25 mM HEPES-KOH pH 7.6, 300 mM K-glutamate, 10 mM Mg-acetate, 10% glycerol, 0.1% NP40, 1 mM DTT, 0.1 mg/mL BSA, 0 or 1 mM ATP, 25 C, 40. To be noted: protein: recombinant; tags: tags cleaved; copies: 1;1;1;1;1;1; blunt. A general note: Size exclusion chromatography separates by hydrodynamic size, large species first.

In data set [5] the target is T4, DmORC Orc1deltaN;DmCdc6deltaN241. Kind of data set: cryo-EM; gel filtration; ATP, Mg2+; DNA bent 46 deg; Anisotropy: 1 nM dsDNA, 25 mM HEPES-KOH pH 7.6, 300 mM K-glutamate, 10 mM Mg-acetate, 10% glycerol, 0.1% NP40, 1 mM DTT, 0.1 mg/mL BSA, 0 or 1 mM ATP, 25 C, 40. Conditions: protein: recombinant;recombinant; tags: tags cleaved;6xHis-MBP cleaved by TEV; copies: 1;1;1;1;1;1;1; blunt.

T1 sequence (O16810 whole entry): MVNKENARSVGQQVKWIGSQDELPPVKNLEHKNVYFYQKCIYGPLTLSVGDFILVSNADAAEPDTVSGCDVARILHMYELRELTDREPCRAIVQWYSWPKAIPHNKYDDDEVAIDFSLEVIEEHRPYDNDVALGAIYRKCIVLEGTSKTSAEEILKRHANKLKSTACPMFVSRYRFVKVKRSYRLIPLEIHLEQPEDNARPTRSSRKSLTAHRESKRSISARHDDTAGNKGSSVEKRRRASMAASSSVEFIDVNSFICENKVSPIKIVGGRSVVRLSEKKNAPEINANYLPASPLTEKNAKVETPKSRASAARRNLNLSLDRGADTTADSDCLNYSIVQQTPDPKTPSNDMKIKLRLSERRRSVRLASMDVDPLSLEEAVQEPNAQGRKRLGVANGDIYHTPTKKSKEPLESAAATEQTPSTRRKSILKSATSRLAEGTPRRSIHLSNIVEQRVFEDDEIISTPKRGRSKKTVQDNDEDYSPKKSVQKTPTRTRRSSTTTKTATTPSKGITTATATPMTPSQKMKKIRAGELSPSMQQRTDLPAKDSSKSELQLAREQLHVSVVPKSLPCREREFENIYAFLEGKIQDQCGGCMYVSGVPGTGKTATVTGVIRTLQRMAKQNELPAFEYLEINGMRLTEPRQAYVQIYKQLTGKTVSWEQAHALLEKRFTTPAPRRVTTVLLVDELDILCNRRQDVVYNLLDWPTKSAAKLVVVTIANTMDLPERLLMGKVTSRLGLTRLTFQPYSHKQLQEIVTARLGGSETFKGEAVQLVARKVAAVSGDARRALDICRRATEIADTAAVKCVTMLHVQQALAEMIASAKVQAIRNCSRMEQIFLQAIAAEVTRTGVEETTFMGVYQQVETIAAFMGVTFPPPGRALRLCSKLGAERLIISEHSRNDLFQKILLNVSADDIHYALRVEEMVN
T1 sequence (Q9W102 1-459): as the sequence (Q9W102 1-459, stated change not applied) above
T1 sequence (Q24168 whole entry partner): as the sequence (Q24168 whole entry partner, the tested form may be a part) above
T1 sequence (Q7K2L1 1-721 partner): as the sequence (Q7K2L1 1-721, stated change not applied) above
T1 sequence (Q24169 whole entry partner): as the sequence (Q24169 whole entry, stated change not applied, the tested form may be a part) above
T1 sequence (Q9Y1B2 whole entry partner): as the sequence (Q9Y1B2 whole entry partner, the tested form may be a part) above

In the case of `Nc1ncnc2c1ncn2[C@@H]1O[C@H](COP(=O)(O)OP(=O)(O)OP(=O)(O)O)[C@@H](O)[C@H]1O` [ATP], the “NADH-coupled ATPase assay (PK/LDH), Michaelis-Menten fit” value at wild type DmORC is “we measured the ATP hydrolysis rates of wild type DmORC”. Also, the cryo-EM structure entry in [1] was “our DNA-free ATP-DmORC cryo-EM structure”.

B1: 40 bp 100% GC (dsDNA)
DNA 1: CGCCGGGGCCGGGGGCGCCCCGCCGCGCGGGGCCGGGCCC
DNA 2: GGGCCCGGCCCCGCGCGGCGGGGCGCCCCCGGCCCCGGCG
For the molecule B1, the binding signal in the data set with DmORC (Orc1-6) wild type [2] was ~20 fold higher Kd than poly(dA.dT).

B2: 40 bp poly(dA.dT) (dsDNA)
DNA 1: TTTTTTTTTTTTTTTTTTTTTTTTTTTTTTTTTTTTTTTT
DNA 2: AAAAAAAAAAAAAAAAAAAAAAAAAAAAAAAAAAAAAAAA
Usually Kd stands for the free concentration of one partner at which half of the binding sites on the other are occupied at equilibrium, for simple one-to-one binding. Take B2: the Kd in the data set with DmORC (Orc1-6) wild type [3] was found to be 2.1 nM.

B3: 60 bp poly(dA.dT) (dsDNA)
DNA 1: AAAAAAAAAAAAAAAAAAAAAAAAAAAAAAAAAAAAAAAAAAAAAAAAAAAAAAAAAAAA
DNA 2: TTTTTTTTTTTTTTTTTTTTTTTTTTTTTTTTTTTTTTTTTTTTTTTTTTTTTTTTTTTT
With B3, in data set [4], the binding result is on record as “binds”.

B4: 40 bp AT-rich (ARS1-like) (dsDNA)
DNA 1: TTTTGAAAAGCAAGCATAAAAGATCTAAACATAAAATCTG
DNA 2: CAGATTTTATGTTTAGATCTTTTATGCTTGCTTTTCAAAA
Regarding B4, the binding signal with DmORC Orc4-R97A and with DmORC Orc3-K141A was ~3 fold higher Kd than wild type in each case.

B5: 60 bp AT-rich (dsDNA)
DNA 1: CCTGCAGGCCTTTTGAAAAGCAAGCATAAAAGATCTAAACATAAAATCTGTAAAATAACA
DNA 2: TGTTATTTTACAGATTTTATGTTTAGATCTTTTATGCTTGCTTTTCAAAAGGCCTGCAGG
Regarding B5, the binding result (in the data set with DmORC Orc1deltaN; in data set [5]) was “binds” throughout.

The values are drawn from paper PMC7450096, “Structural mechanism for replication origin binding and remodeling by a metazoan origin recognition complex and its co-loader Cdc6” (Nature Communications, 2020).
